Target: lysine-acetylated histone H4 peptide SGRGKGG-AcK-GLGK (Lys8 acetylated)
Experiment: 15N-HSQC backbone amide chemical shift change upon binding to the AcK peptide

maximum weighted chemical shift difference (Tyr809): 0.16 ppm
Substance: bromodomain of P/CAF (residues 719-832 of SEQ ID NO:2) (from UniProt Q92831 719-832)
